Assay results: patent US20210337838A1, “RECOMBINANT EXPRESSION OF FUMONISIN AMINE OXIDASE” (priority 2018, published 2021)
Read-outs that look alike come from different tables or passages of the source.

Experiments:
[1] = FB2 deamination by purified recombinant AnFAO, reverse-phase LC/MS; assay type: biochemical; conditions: 6 nM enzyme, 1 μM FB2, 0.1 mg/ml catalase, 1 h at 37° C.
Method: In particular, all MS data were collected with a Q-Exactive™ Quadrupole Orbitrap™ mass spectrometer (Thermo Scientific, MA, USA) coupled to an Agilent 1290 ultra-high-performance liquid chromatography (UHPLC) system. Fumonisins were resolved on a Zorbax™ Eclipse Plus Rapid Resolution High Definition (RRHD) C18 column (2.1×50 mm, 1.8 μm; Agilent Technologies, CA, USA), maintained at 35° C. The mobile phase was comprised of water with 0.1% formic acid (A), and acetonitrile with 0.1% formic acid (B) (Optima grade, Fisher Scientific, NJ, USA). The gradient consisted of 0% B for 0.5 min before increasing to 100% over 3 min, held at 100% for 2.5 min and reduced to 0% over 0.5 min. The fumonisins were detected in negative ionization mode using the following electrospray conditions: capillary voltage, 4.0 kV; capillary temperature, 400° C.; sheath gas, 17.00 units; auxiliary gas, 8.00 units; probe heater temperature, 450° C.; S Lens RF level, 45.00. […] The five highest intensity ions from the full scan (excluding isotopes) were sequentially selected using a 1.2 m/z isolation window and analyzed at a resolution of 17,500; AGC target, 1×10^5; max IT, 64 ms; normalized collision energy (NCE) 30; threshold intensity 9.1×10^4; and dynamic exclusion of 1.5 s. Fumonisins were detected by accurate mass (±5 ppm) and retention time (±0.1 min) and verified by MS/MS. […]

[2] = Fumonisin deamination activity of AnFAO with or without excess FAD; assay type: biochemical; conditions: enzyme dialyzed in 20 mM MES (pH 6), 150 mM NaCl with additional 50 μM FAD
Source text: The whole mass of AnFAO following denaturation and LC-MS analysis was 51,320.70 Da, which matches the predicted mass of the apo-enzyme (51,320.97 Da) as shown in FIG. 12D. […] AnFAO also lacked the requisite Histidine or Tyrosine residues for covalent 6α-linkages to the FAD backbone, as observed in other covalent flavoproteins (Heuts et al., 2009).

[3] = Effect of temperature on fumonisin deamination activity, reverse-phase LC/MS; assay type: biochemical; conditions: 6 nM enzyme
Method: (§1) Activity was measured via reverse-phase LC/MS analysis. […] All proteins were scanned at a concentration of 0.3 mg/ml in buffer containing 20 mM Tris-HCl (pH 7.4), 50 mM NaCl and 0.75 mM DTT. Thermal denaturation was monitored at […] with a temperature scan ranging from 20 to 95° C., increasing by 1° C. per minute with data collection every 30 seconds. Baseline corrected data were converted from millidegrees to mean residue ellipticity, and thermal denaturation curves were produced by nonlinear regression in Graphpad Prism.

[4] = Circular dichroism thermal denaturation; assay type: physicochemical; conditions: 0.3 mg/ml, 20 mM Tris-HCl (pH 7.4), 50 mM NaCl, 0.75 mM DTT, monitored at 222, 20 to 95° C.
Method: as §1

[5] = Method: (§2) 98 μL of this solution was added to 2 μL of a stock of FB2 in a microfuge tube (2.5 mM) and incubated at 30° C. for 30 mins. At the end of the incubation time, 20 μL of the reaction was diluted with 80 μL of 50 mM HEPES pH 7.0, 150 mM NaCl and 100 μL of this was added in triplicate to wells of a 96-well microplate. 100 μL of Amplex™ red reaction buffer consisting of 50 mM HEPES pH 7.0, 150 mM NaCl, 200 μM Amplex™ red, 2 U/ml horseradish peroxidase was immediately added to each well and absorbance was measured at 571 nm. Rates were calculated based on an H2O2 standard curve and the incubation time taking into account the dilution factors. […] 100 μL of protein sample was added to wells in triplicate in a 96-well microplate. 100 μL of Amplex™ red reaction buffer consisting of 50 mM HEPES pH 7.0, 200 μM Amplex™ red, 2 U/ml horseradish peroxidase and 50 μM FB2 was then added to each well and absorbance was monitored at 571 nm every 10 mins for 1 hr. A standard curve consisting of 0-10 μM H2O2 was included to determine the absorbance for every pmol of H2O2 generated by the reaction.
[6] = NaCl dependence of fumonisin deamination activity, Amplex red; assay type: biochemical
Method: as §2

[7] = 1 μM enzyme, room temperature, 16 h, corn material in water
Method: Following incubation, 700 μls of extraction solution (78% acetonitrile, 2% ethyl acetate) was added to each sample and incubated at 37° C. with shaking for 45 minutes. This mixture was then centrifuged at 20,000×g and 400 μls of the cleared supernatant was mixed with an equal volume of 50% methanol. Samples were then analyzed for fumonisin contamination by reverse phase HPLC-MS as previously described.

[8] = Ethanol tolerance of deamination activity, reverse phase LC/MS
[9] = Amplex red assay of RID+AO enzyme; assay type: biochemical; conditions: 80 nM enzyme, 25 μM FB1, 50 mM HEPES (pH 7), 150 mM NaCl

B1: AnFAO_15309 (protein)
chain: MSVSNDPTTKLYDAVIVGAGLSGLQAAHSIQAAGFSVCILEATDRMGGKTLTVKSSEKGYNDLGAAWVNDTNQTEIFKLHQRYGLDGVVQYTCGDDILESGEGVIRKIPYGLPLTGLPKKLLDILRIESSRLDLDDPTSFPGATEVDNLTFRDFCVEKTGSEDVIHITDAISTALLGLNSNELSALYMLYYFKSGSGIDNLLSDERDGAQYLRTRQGTQTIARKMADELTQSDIFLGMPVTSINQTDADAHCVVQTLDGSSFRCRRVIVSIPTTLYRSVSFHPPLPHAKQVLSDHTIMGYYSKVIFIFKEPWWRDAGLTGIVNCAGGPITFTRDTSVPTDDQWSITCFMVGSRGRAWSKLSKDDRYSQVWEQFRRCFEEFVENIPEPVNTLEMEWSKEPYFLGAPCPAMIPGLLTTAGSDLAAPHGKVHFIGTETSTVWRGYMEGAIRAGQRGGAEVVTALQED
modifications: codon-optimized; AnFAO_15309 codon optimized for Saccharomyces cerevisiae
[1]
  conversion of FB2 into FPy2: Full conversion
[2]
  change in fumonisin deamination activity with additional FAD: No difference
[3]; 2 μM FB2
  optimal temperature of FB2 deamination: 50 °C
[3]; 2 μM FB2, 21° C.
  of maximal activity at 21° C.: ca. 35%
[3]; 2 μM FB2, 60° C.
  of maximal activity at 60° C.: 52%
[3]; 2 μM FB2, 95° C.
  activity at 95° C.: No activity
[4]
  melting temperature: 71 °C
[5]; 300 nM enzyme, FB2, 30° C., 30 mins
  optimal pH of activity: 6
[5]; Citrate pH 3.5
  activity remaining at pH 3.5: ca. 20%
[5]; Pyrophosphate pH 9
  activity remaining at pH 9.0: ca. 30%
[6]; 0 mM NaCl
  of maximum activity at 0 mM NaCl: 70%
[6]; 50 mM HEPES pH 7.0, FB2
  NaCl concentration of optimal activity: 50 mM
[6]; 1 M NaCl
  of maximum activity at 1 M NaCl: 66%
[7]
  intact fumonisins remaining after treatment: no intact fumonisins remained
[7]; listed as AnFAO
  intact fumonisins remaining after treatment: No intact fumonisin remained
[8]; 10 nM enzyme, 1 μM FB2, 30 minutes at 37° C., 5% EtOH
  activity remaining at 5% EtOH: 71%
[8]; 10 nM enzyme, 1 μM FB2, 30 minutes at 37° C., 10% EtOH
  activity remaining at 10% EtOH: 43%
[8]; 10 nM enzyme, 1 μM FB2, 30 minutes at 37° C., 20% EtOH
  activity remaining at 20% EtOH: 12%
[8]; 30% EtOH
  deamination activity at 30% EtOH: Negligible amounts
[8]; 40% EtOH
  deamination activity at 40% EtOH: Negligible amounts

B2: RID+AO: GST-tagged 597 amino acid A. niger enzyme with N-terminal Reactive Intermediate Deaminase domain and C-terminal amine oxidase domain (protein)
chain: MAPAPVLATSAYYAPGVVSSASKYLHVSGQPGTIEGTAPADYNSQIHLALVNLHRVLAATGATPRDVVKLTLYIVDYDPNNRLHTRPLQTWLAGHKPAITLVPVPQLAVPDWKFEIEATVAVPDSIPASLSLPSPTETTDVLVIGAGLSGLMAAETTLQSGHSCIVLEGRDRVGGKTWTCPLPSGTGVVDLGAAWINDTNQSMMYELARRAGADLIEQNTTGNCLLQREDGAITAFPYGQTPCITPQIVKEIEAIRDTAEQDCQSFSTSRPQSPALDSLSFLAYLHSRNASPIAAANASVWTRAMLGQEPQDISALYFLNYCKSGGGLLQMRSDRKHGAQYLRVRQGTQIFAKTLAESLPTDTIRFGQRVVGITQVQKGVNYVQTESGLVVKARKVICSVPTPVLKTIKFEPQLPAAKQLLVDSFRYGYYTKVMLSFRTAWWADRGFCGLAQSFVGPASIYRDTSSPEDGKWVLTAFLAGDAGRNWSALGSQRERELALLEQLGAIYGDKDLPKREFVEALGHEWSTEELSGWGCPCPALPPGVLTLAGDALREPFRDVHFVGTETAEEWKGYMEGAVRSGKRGAAEAVKGLTRSQL
modifications: GST tag; Aspergillus niger
[9]
  activity towards fumonisins: no activity
